Experiments:
[1] = tested on: syngeneic CT26 colorectal tumors; assay: CT26 tumors in BALB/c mice treated with C. novyi-NT spores and free or liposomal drugs; type: in vivo, mouse; details: 300 million spores i.v., drug 10 mg/kg single i.v. dose 16 h later
Method: Animal models. […] Tumor volume was calculated as length×width^2×0.5.

[2] = Liposome-disruption assay (doxorubicin release from Doxil); type: biochemical; details: lysates of IPTG-induced E. coli incubated with liposomal doxorubicin
Method: Liposome-Disruption Assay. Samples were mixed with DOXIL™ liposomal doxorubicin (100 μl sample+5 μl DOXIL™ liposomal doxorubicin in a 96-well plate or 50 μl sample+2 μl DOXIL™ in a 384-well plate). Increase in fluorescence caused by the dequenching of released doxorubicin was kinetically measured over 30-60 minutes using excitation at 470 nm and emission at 590 nm (5). All measurements were performed at 37° C. in a fluorescence plate reader. Liposome-disrupting activity was defined as the maximum slope of the release curve.
Lipase Panel Experiment. Purified NT01CX2047 enzyme and nine other purified lipases were dissolved in 100 mM Tris-HCl, pH 7.5 to a concentration of 1 mg/ml. Fifty μl of Assay Buffer (100 mM Tris-HCl pH 7.5+0.125M NaCl) was pipetted into 384-well plates, followed by 2 μl of the relevant lipase and 1 μl of DOXIL. Samples were assayed in duplicate for liposome-disrupting activity as described above.
To test the liposome-disrupting activity of the lysates described above, we incubated them with liposomal doxorubicin. […] When this strain was cultured without selective antibiotics until the bacteria lost the expression vector by random segregation, the liposome-disrupting activity was lost (FIG. 4C). Moreover, the cells that had lost the plasmid were able to grow as robustly as the parental E. coli and the S127X mutant.

E. coli = assay: Growth of E. coli expressing NT01CX2047 forms after IPTG induction; type: cell-based; details: after induction by IPTG
Method: Protein Expression. The expression vectors described above were transformed by heat shock into the Rosetta-gami(DE3)pLysS strain of E. coli (Novagen, Madison, Wis.). Three clones per expression construct were picked and each was cultured in 20 ml HyperBroth (AthenaES, Baltimore, Md.) under antibiotic selection (100 μg/ml ampicillin+34 μg/ml chloramphenicol) at room temperature. As a negative control, bacteria carrying the pLip plasmid were “cured” of their plasmid through growth in the absence of selective antibiotics. Loss of plasmid was verified by PCR. Expression was induced using IPTG for 1 hour, reaching an OD600˜0.2, after which the bacteria were pelleted by centrifugation and resuspended in 100 mM Tris-HCl, pH 7.5. Lysates were prepared by sonication in a Bioruptor sonicating bath (Diagenode, Belgium) and centrifugation at ˜14,000 g was performed to remove insoluble matter. […]
To examine the properties of the protein encoded by NT01CX2047, we cloned its ORF into an inducible expression vector which was then introduced into a genetically modified E. coli strain that permitted expression of C. novyi-NT genes (which have a codon usage very different than that of E. coli). […] Lysates from these cells were tested for lipase activity as measured by hydrolysis of 1,2-dioleoyl-3-pyrenedecanoyl-rac-glycerol. […]

[3] = Lipase assay of E. coli lysates; type: biochemical; details: lysates of IPTG-induced E. coli clones
Text: FIG. 4A-4D. Functional analysis of liposomase. Plasmids carrying the wt or mutant forms of the NT01CX2047 gene were introduced into E. coli. “Cured” bacteria represent those originally containing the wt gene and grown in the absence of selective antibiotics until the plasmid was lost. Cellular lysates from three independent clones of each bacterial strain were generated after induction of expression by IPTG and used for the following: (FIG. 4A) Western blotting with an antibody to oligohistidine confirmed the presence of similar amounts of wt and mutant proteins in the bacteria. (FIG. 4B) Lipase activity was analyzed using the fluorescent lipase substrate, 1,2-dioleoyl-3-pyrenedecanoyl-rac-glycerol. (FIG. 4C) Liposome-disrupting activity was assessed using Doxil. (FIG. 4D) Liposome-disrupting activity of lipases purified from ten different organisms were assessed using Doxil. Means and standard deviations of data from at least two independent experiments are shown in (FIG. 4B) to (FIG. 4D).
Protein Expression. […]
Lipase Assay. […] Increase in fluorescence caused by catalytic release of pyrenedecanoic acid was kinetically measured over 2 hours using excitation at 320 nm and emission at 405 nm. All measurements were performed at 37° C. in a FluoStar Galaxy fluorescence plate reader. […]

Row | Molecule | tumor response (tumor volume) [1] | liposome-disrupting activity [2] | growth of the expressing E. coli cells (apparent toxicity of gene product) (E. coli) | lipase activity [3]
1 | COc1cccc2c1C(=O)c1c(O)c3c(c(O)c1C2=O)C[C@@](O)(C(=O)CO)C[C@@H]3O[C@H]1C[C@H](N)[C@H](O)[C@H](C)O1 [doxorubicin] | Neither doxorubicin nor Doxil alone resulted in prolonged therapeutic effects |  |  | 
2 | NT01CX2047: C. novyi-NT extracellular lipase, the liposome-disrupting factor (SEQ ID NO: 1), expressed in E. coli with oligohistidine tag (protein, listed as Clostridium novyi, oligohistidine tag) MQSKLKKFISTISVSLFTLASVLTFSMAKPVNAFAKENQKVSQNNYPIILCHGCNGWGRTENFGTVAFGARYYWGGNVDLQQKLIENGFTTYTAAVGPLSSNWDRACELYAQIKGGRVDYGEAHAKKHGHSRYGRYYRGFYPEWGTKDENGNIRKVHLIGHSQGGQTIRMLTTLLGQGKQEEISATGENTNELFKGGHDWVSGLITLASPHDGTTLADMKGTDAAAAIGIGAVGSMLGNISNSDIIFDLKVDQWGLKRKPSESFISYFNRCATSKMWNSKDICSVDLSTNGAVEQNKWVKAQPNVYYFSWACCGTIRNPISIFGHHMASPIRMSDKGLYNVQWALQAQLMGTYSRNNPRRAIPVIDSKWWPNDGYVNTISENGPKAGSTDEIVNYNGTPQIGKWNFMGVKDMDHEDIIGRHWNGAPNFFIDMAQMLRNLPVTE |  | potent activity | grew poorly | exhibited lipase activity
3 | S127G (protein, listed as Clostridium novyi) MQSKLKKFISTISVSLFTLASVLTFSMAKPVNAFAKENQKVSQNNYPIILCHGCNGWGRTENFGTVAFGARYYWGGNVDLQQKLIENGFTTYTAAVGPLSSNWDRACELYAQIKGGRVDYGEAHAKKHGHSRYGRYYRGFYPEWGTKDENGNIRKVHLIGHGQGGQTIRMLTTLLGQGKQEEISATGENTNELFKGGHDWVSGLITLASPHDGTTLADMKGTDAAAAIGIGAVGSMLGNISNSDIIFDLKVDQWGLKRKPSESFISYFNRCATSKMWNSKDICSVDLSTNGAVEQNKWVKAQPNVYYFSWACCGTIRNPISIFGHHMASPIRMSDKGLYNVQWALQAQLMGTYSRNNPRRAIPVIDSKWWPNDGYVNTISENGPKAGSTDEIVNYNGTPQIGKWNFMGVKDMDHEDIIGRHWNGAPNFFIDMAQMLRNLPVTE |  | retained substantial liposome-disrupting activity | same poor growth as wild-type NT01CX2047 | devoid of lipase activity

Reference: patent US8444963B2 (priority 2006, dated 2013)
